Biological target: Globin E1 of the South American lungfish Lepidosiren paradoxa, recombinant (Lepidosiren paradoxa)

Substance: Globin E1 of the South American lungfish Lepidosiren paradoxa, recombinant (natural protein)
- cooperativity (n) of the O2 equilibrium curve, pH 7.2, 20 °C: 1.19
